One molecule from PMC4756693, “Structural analysis of disease-related TDP-43 D169G mutation: linking enhanced stability and caspase cleavage efficiency to protein accumulation” can be followed below.

The data set concerns the target TDP-43 RRM1 (human, UniProt Q13148 101-191). In words: X-ray crystallography; crystals at pH 5.5, PEG 3350, ammonium acetate; Co-crystallization, protein:DNA 1:1.2; protein in 50 mM HEPES pH 7.5, 100 mM NaCl, 10 mM bME; hanging drop at room temperature (stated for RRM1/DNA). (TG)15 Kd. Particulars: protein: recombinant; tags: N-terminal His; single strand; 8 and 9 nt modelled in the two RRM1 complexes.

Chain of TDP-43 RRM1 (Q13148 101-191): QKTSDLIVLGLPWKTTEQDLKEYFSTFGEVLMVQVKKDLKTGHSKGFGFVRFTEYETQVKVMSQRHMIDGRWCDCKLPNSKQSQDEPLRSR

B1: 10-nt ssDNA (ssDNA)
DNA: GTTGAGCGTT
modifications: none
In the case of B1, the binding result is “binds”.
